Experimental data: patent US11433139B2, “Peptide vaccines against interleukin-31” (Zoetis Services LLC, priority 2018, dated 2022)

Experiments:
canine IL-31 [1] = target: T1, canine IL-31 (Canis lupus familiaris, UniProt A0A8I3S3D1); test: Inhibition of canine IL-31 induced pSTAT3 signaling in canine DH-82 and feline FCWF4 cells; assay type: cell-based
T1 construct: made in house; host or cells: CHO cells (CHROMOS ACE system)
T1 sequence (A0A8I3S3D1 24-159): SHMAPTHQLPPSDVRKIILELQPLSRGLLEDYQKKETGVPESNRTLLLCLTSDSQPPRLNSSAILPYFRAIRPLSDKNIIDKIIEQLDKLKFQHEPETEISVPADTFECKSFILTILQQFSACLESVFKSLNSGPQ
Procedure, shortened: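 DH-82 cells primed with canine IFN-γ 10 ng/mL for 24 h, FCWF4 with feline IFN-γ 125 ng/mL for 96 h, then serum-starved 2 h. mAb pre-incubated 1 h with 1 μg/mL canine or 0.2 μg/mL feline IL-31, cells stimulated 5 min; pSTAT3 by AlphaLISA SureFire, IC50 as half-maximal signalling reduction.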

wildtype feline IL-31 = test: Indirect ELISA, binding to wildtype feline IL-31
Procedure, shortened: (§1)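 Wildtype or 15H05-epitope-mutant feline IL-31 coated directly onto plates as capture antigen (50 ng/well). Antibodies diluted in PBST, bound antibody detected with HRP-labelled secondary and TMB for 10 min at RT. Reaction stopped with 0.1 N HCl, then OD read at 450 nm.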

[2] = test system: feline IL-31 15H05 mutant; test: Indirect ELISA, binding to feline IL-31 15H05 mutant; conditions: compared with wildtype
Procedure, shortened: as §1

equine IL-31 = test: Biacore binding, single test concentration of antibody, equine IL-31 surface
Protocol: For the indirect ELISA, binding (ELISA OD) to wildtype feline IL-31 and a feline IL-31 15H05 mutant which had mutations in the monoclonal antibody 15H05 epitope region was assessed. To confirm binding, biacore analysis was performed using canine, feline, equine, human, the feline 15H05 mutant, and feline 11E12 mutant IL-31 proteins as surfaces and a single test concentration of antibody. The feline IL-31 11E12 mutant had mutations in the monoclonal antibody 11E12 epitope region.
For the indirect ELISA method, antibody binding to wildtype and feline IL-31 15H05 mutant proteins was assessed. […] In comparison, the 11E12 antibody bound to the wild-type feline IL-31 and its binding was not impacted by the mutations in the 15H05 epitope region as evidenced by the data in FIG. 4. To confirm binding, biacore analysis was performed using canine, feline, equine, human, feline 15H05 mutant, and feline 11E12 mutant IL-31 proteins as surfaces and a single test concentration of antibody. Similar to ELISA observations, all antibodies tested bound to wildtype feline IL-31. In agreement with the data described above in this section, mouse antibodies 11 E12 and 15H05 both bound to canine and feline IL-31 surfaces. […] From this group of nine fully canine antibodies, only ZIL1 and ZIL9 cross-reacted with equine IL-31. Of note, antibody 15H05 was the only one of all assayed herein that bound to canine, feline, and equine IL-31 indicating some level of epitope conservation across the three species. In contrast, none of the antibodies described herein bound to human IL-31. Additional biacore surfaces were used to verify ELISA observations showing differential binding of antibodies to wildtype feline IL-31 and two proteins with mutations in the 15H05 (15H05 mutant) or 11 E12 (11E12 mutant) epitopes. […] Differing results can be attributed to differences in the two assay methodologies.

[3] = test system: feline 15H05 mutant IL-31; test: Biacore binding, single test concentration of antibody, feline 15H05 mutant IL-31 surface
Procedure, shortened: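 Surface plasmon resonance with IL-31 proteins (wildtype feline, equine, or feline proteins mutated in the 15H05 or 11E12 epitope regions) immobilized as surfaces. Each antibody injected at a single test concentration to score binding.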

canine IL-31 [4] = test: Competition binding assessment using Biacore, canine IL-31 surface; conditions: sequential addition of 15H05 and 11E12, Biacore
Protocol: To further characterize the IL-31 epitopes bound by mAbs 15H05 and 11 E12, blocking experiments were performed using biacore where the surface containing the IL-31 protein was generated followed by sequential addition of antibodies. FIGS. 7A and 7B show the relative binding of each antibody to IL-31 following capture of 11E12 or 15H05. The columns labeled HBS-EP (assay buffer) indicate the maximum signal obtained from each antibody binding to the IL-31 surface alone without competition. […] The sensograms related to FIG. 7A show the disassociation kinetics of both antibodies are very slow on this newly formed biacore surface therefore no additional occupation of binding sites can occur with addition of the same antibody (data not shown).

Chain of feline IL-31 15H05 mutant (as listed by the source, change not shown): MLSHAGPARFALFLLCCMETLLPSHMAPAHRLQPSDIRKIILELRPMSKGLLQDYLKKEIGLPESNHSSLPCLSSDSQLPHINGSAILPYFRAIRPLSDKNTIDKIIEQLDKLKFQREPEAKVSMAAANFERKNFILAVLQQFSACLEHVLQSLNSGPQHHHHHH
Chain of wildtype feline IL-31 (as listed by the source): as the sequence (as listed by the source, change not shown) above, with A126P, A128D counted along it
Chain of equine IL-31 (as listed by the source): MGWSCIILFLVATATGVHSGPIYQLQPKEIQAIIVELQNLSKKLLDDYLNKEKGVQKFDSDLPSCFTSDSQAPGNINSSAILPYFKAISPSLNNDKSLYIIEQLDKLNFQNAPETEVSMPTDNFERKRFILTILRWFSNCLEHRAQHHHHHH
Chain of canine IL-31 (as listed by the source): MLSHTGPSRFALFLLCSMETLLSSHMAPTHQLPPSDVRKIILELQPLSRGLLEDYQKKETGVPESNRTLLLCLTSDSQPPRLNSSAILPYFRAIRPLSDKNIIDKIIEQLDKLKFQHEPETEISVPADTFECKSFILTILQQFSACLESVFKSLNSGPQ

B1: 15H05: mouse anti IL-31 monoclonal antibody, VH SEQ ID NO: 67, VL SEQ ID NO: 69 (antibody, listed as Mus musculus, V domains shown)
VH: QVQLQQSAAELARPGASVKMSCKTSGYTFTSYTIHWIKQRPGQGLEWIGNINPTSGYTENNQRFKDKTTLTVDRSSNTAYLQLHSLTSEDSAVYFCARWGFKYDGEWSFDVWGAGTTVTVSS
VL: DIQMNQSPSSLSASLGDTITVTCRASQGISIWLSWYQQKPGNIPKVLINKASNLHIGVPPRFSGSGSGTHFTLTITSLQPEDIATYYCLQSQTYPLTFGGGTKLEIN
blocking of canine IL-31 signaling in canine cells (canine IL-31 [1]; canine IL-31, canine cells): capable of blocking canine IL-31 signaling
blocking of canine IL-31 signaling in feline cells (canine IL-31 [1]; canine IL-31, feline cells): capable of blocking canine IL-31 signaling
binding to wildtype feline IL-31 (ELISA) (wildtype feline IL-31): capable of binding
binding to feline IL-31 15H05 mutant (ELISA) [2]: complete loss
binding to equine IL-31 (Biacore) (equine IL-31): bound
binding to feline 15H05 mutant IL-31 (Biacore) [3]: did not bind
competition binding on canine IL-31 (canine IL-31 [4]): capable of binding to canine IL-31 in the presence of one another
